Measurements published in the DeepSol protein solubility set.

Experiment: soluble on expression in E. coli; label from the status in PepcDB or PDB records
With “MSLDVALAPPGPLASGGLRVTALGGISEIGRNMTIFEHLGRLLIIDCGVLFPGHDEPGVDLILPDLRHIEDRLDDIEALVLTHAHEDHIGAIPFLLKLRSDIPVVGSKFTLALVAAKCREHRIKPVFVEVVGGQSSRHGVFECEYFAVNHSIPDALTIAVYTGAGTVLHTGDIKLDQLPLDGRPTDLPGMSRLGDAGVDLFLCDSTNAEIPGVGPSESEVGPTLHRLIQGADGRVIVACFASNVDRVQQVIDAAVALGRRVSFVGRSMVRNMSIARDLGFLRVDDSHMIDIAAAEMMAPEQVVLITTGTQGEPMSALSRMSRGEHQSITLTSGDLVVLSSSLIPGNEEAVYGVIDALAKIGARVVTNAQARVHVSGHAYAGELLFLYNGVRPRQVMPVHGTEGHHHHHH” the “soluble on expression in E. coli” value was “soluble”. In the case of “SLENVLASHSKMQGALEKVQIELGRRDSEIAGLKKERDLNQQRVQKLEAEVDQWQARMLVMEDQHNSEIESLQKALGVAREDNRKLAMSLEQALQTNNHLQTKLDHIQEQLESKELERQNLETFKDRMTEESKVEAELHAERIEALRKQFQTERETTKKVAQREVAELKKALDEANFRSVEVSRTNRELRQKLAELEKILESNKEKIKNQKTQIKLHLSAKANNAQNIERMKVVWETSSHFLDTL”, the “soluble on expression in E. coli” value is reported as “soluble”. In the case of “PQFEKIEGRMIRILYLLVKPESMSHEQFRKECVVHFQMSAGMPGLHKYEVRLVAGNPTDTHVPYLDVGRIDAIGECWFASEEQYQVYMESDIRKAWFEHGKYFIGQLKPFVTEELV”, the “soluble on expression in E. coli” value is reported as “soluble”. In the case of “MGSDKIHHHHHHMNFGYWYYREYFNTIKLNSEGIVTNFSTFNKGKNDKLIKGATLPPCDKENDIKDVTGFELKTCYPGLLCGVGYHHEINKPADEKGKKVEGDKEDDAPEVYNLGMYFDYTSGLPVIPGSSIKGMLRSAIEEWDFLADYELNNGVTREEIIEKVFVGKEYSIYDRDIFLDAIPIRVDNTLFGEDYITHHPNPLQNPNPVRFLRVEPGVTYQFRFILKDHGEKLTVDFRTKLFKAIICTFGLGAKTNVGYGQFVEP”, the “soluble on expression in E. coli” value is reported as “not soluble”. With “MRLWRICFKDPEPFIELYFHKVFREDYTLLQYSETGEAVAHLQMLPYQLRIFGTSFSAGYISGACTHPDHRGKGIMRTMMAEALSAIYDRGDICSFLIPAETWLYDFYSRSGGYAPAFGRKQFLYRPNSIPQKFPSGYACTIGQGDYSFLSAEEHTDIRLAVQHTLGQWQTALKDFSLAGGNVAMLQDSAGKTVSQACFVPRENSLDIKLLVGDAEATFILVDHLLRSLDCDHASILAHSGSAPYGMLRILRPIPILEAFAQYHPAEGYSFAYSDPLFSQHNGTYHISKGRIVFSNNVQPENSLLPHHTPDSLVKDLFSPFPSALFLMLD” the “soluble on expression in E. coli” value was “not soluble”. With “MEIALERIYGHRLALPQVGAALLFAQEAPPALLLVPEARLRRYRDLSAFGAKVYVNPGLEALEEKALFVLSYEEALSPFPEDPEAWRLLLEVGRAYPREALLSRLLKLGYARDEDYRVLGEVVELGEVRLEFFGDELERLVVRGEERRRHVLLPKPGKAEGFTSKKVLHFPGPVYLDTPALAPKALWPLLAGRPWVALGGGVELPPLELGARPLPPYRGSLKALEKDLARWLAEGKRVHLFVGHARTLEYLKRRLQAFSPLILDRFPGPKGRLALLPGDFEGGAEWGEWVLLTEALVFATGGVRARVRVGEGLSDPGALSPGDYLIHPEHGVGQYLGLETREVLGVKRDYLVLRYKGEGKLYLPVEQLPLLKRHPGTTDDPPELSSLGKNEWQRAKERARKDVEELAGRLLVLQAKRKATPGRAFPPLPEWDPLVEKGFPYELTPDQKRALEEVLRDLESPHPMDRLVSGDVGFGKTEVALRAAHRVVGHGAQVAFLGPTTLLAEQHGKTFRERFQGLPVRVAVLSRFTPPKEEEAILKGLAEGTVDIVIGTHRLLQEDVRFRDLGLLIVDEEHRFGVAQKERIRELKAEVDTLYLSATPIPRTLYSALVGLKDLSSIQTPPPGRKPIKTFLAPFDPLLVREAILFELERGGKVFYVHDRVASIEARRRFLENLVPEARIGVVHGQMPESLIEETMLLFAEGAYDVLLATTIIEAGLDVPEANTILIERADRLGLATLYQLRGRVGRREEEAYAYLFHPPRLTEAAEKRLAAIADLSDLGSGHLLAERDMEIRGVGNLLGPEQHGHIRALSLEVYTELLEEAIRKLKGEAKEERRHVTLDLALSARLPAEYVGSLEARSRYYSRFAEAKSLAELSRLVRELKERYGPLPEEAENFVALARLRLVAERKGVVSITEGLTHLEVVFPRYPLDYDARGLKGLPYRVELTQYPPGFRLEKKGLRPRDYPEALMEVLYLFADL” the “soluble on expression in E. coli” value was “soluble”. In the case of “MGSDKIHHHHHHMKLAYFVIPHIGGTYSVFKHLRKGLAAYDIDVRWLGVCKETYGLPLDLQGETAFGQLLRMPVNLSERDCAARMAAAIENGGFDGVIVNVLGDQLQTNIARYLPEGILRILVVHNISPGTYAAARSVRDYAHVTIGVSERCRADLVARNGFPKDRTYAIPNAVDSDAFRSQAVRRVNRGPELKVLFVGRIEDASKGVMWLREILDGSPEAVRLTIVGDGPDMGKLRRRLASHDDRVSYAGSVQLSDIPVIMASHDVLIMPSRFEGLGMTMIEAMAGGCVPVVSHIRGVTDTIVEPGRNGFLFPIGNYTAAANAIGRLHADRDLLERMSIAGKEMVLNRFSIERMAARYNEVIAMTLNDRPGLSTVLRMEDWSIPAGLRPGLRTYLPLPLKNWLRVVRERL”, the “soluble on expression in E. coli” value is reported as “not soluble”. With “MGSDKIHHHHHHMDAILECCAGLDVHQETVVACILFGSLESKPKKTIRTFSTTTSDLLALTDWLEEEKCSHVAMESTGVYWKPVWNILEAGSFQLSLANAQRIKNLPGRKTDVKDAEWIAQLLRSGLIQGSFVPPAEIRDLRDLTRYRKKLLQDATQEKNRIHKILQDANIKITTYISDIFGVSGRNIMESLMDGEVITVEKLNQMVKGKVKSKIPGLADALNHRLRSHHRDMIRYSWSHLKFLEQSLINVEQKISECMAPYQQEVELLTSIPGINQTSSAIMIAELGADMSVFPTDSQLSSWAGVSPGNNESAGKKKEGVFPQETKR” the “soluble on expression in E. coli” value was “not soluble”. For “MSDMTDMLEDEMIDPVTGEIIDQKDLAERLLAQAKEQGVSLVGPGGLLNQLTKNVLETALNAELTEYLGHEHGETPLGSNMRNGPRTKTVLTVESGRFRSRSRGTVTGRSSR”, the “soluble on expression in E. coli” value was “not soluble”. In the case of “MMRDSPSIQGTLDAATQHALLAGRHADPFSVLGPHQAGAHTVVRVLAPGARTVMAVLPGGQRTPLLPMQPGLFENTVPGLQPGAPAAYRLCIEWEGGIQHTADPYAFGPVLD”, the “soluble on expression in E. coli” value is reported as “not soluble”. For “MSKLYLMSLGCNKNLVDSEIMLGHLSAYELCDEPSKADVLIVNTCGFIDSAKKESINAILDLHEQRKKDSLLVVTGCLMQRYREELMKELPEVDLFTGVGDYERIDEMILKKTNLFSNSTYLQSENSKRIITGSNSHAFIKIAEGCNQKCSFCAIPSFKGKLKSREISSIIAELKDLVARGYKDFSFIAQDTSSYLFDKGEKDGLIRLIDEVEKIKGIRAARILYLYPTSASEALIKRIIASEIFINYFDMPLQHISDNMLKIMKRGANSTRLKEMLNLMKSAPNSFLRTGFIVGHPGESEADFEELCEFVKDFGFDRISVFAYSKEEDTAAFDMEQVPFKVINKRLKIIEKIVDEVIEKSFEKEVGQKRLVVCTGKSSEGEFFIAAKDLRWDREIDGEILINESECGNLEMGQIYECEILQNLDKKLLAKALRKVDANLEHHHHHH”, the “soluble on expression in E. coli” value was “soluble”. With “MGSDKIHHHHHHMKPIDIKENKNPVESAQFGKTQDEPLSDKTHVQISDEATQWLLTIEEDDSENNQQALNAWLSLSAQHKKVYQQLQTLWEVADELPVDLFSEDLLGLSMTPSSAVNTSSRVNPYALKKESILAKFISFFTLRKTMYTASFASVIFATFITFTQYNREMVTTDKPLQVASSSTLRTNEYQTKLGEHKTITAQDGSIIVLAAKSQVFIDYSANRRDIHLLYGEALFTVEKDKERPFIVHNHGRSVQALGTIFNVRESKSAMQVSVLEGIVEVNVEPEVKSKVTNSSDKNQVATLVAGQALELDSLGQFSTTYAIEVNERMAWQDGRLNYVNTDLANVIFDLKRYSTLSIHIPNKQVANMGYTGSVIYDKVDDWLIALPYIFPVEVQRHGNSVVIVKRKE” the “soluble on expression in E. coli” value was “not soluble”. With “MFRLSALYRYPIKSSAAESLERVALDALGVVGDRRWMAVDTETGRFFTQRLLPQLGRIQARWAAPEVLRLNAPGMSELSLEVPAADANLRGVTVWRDTLQAPDAGDAAADWLTRFLGRPTRLVHIPEARARQVDTGYAEPGQKVHFADGFPLLLIGQASLDDLSQRVGRPLEMLRFRPNLVVEGSAAFAEDGWKRIRIGSVEFVVAKPCSRCILTTLDPATGERNEDREPLTTLKTYREKDGAVLFGQNLIALGQGSLEVGMPVEILD” the “soluble on expression in E. coli” value was “soluble”. In the case of “DMSKVNLEVIKPWITKRVTEILGFEDDVVIEFIFNQLEVKNPDSKMMQINLTGFLNGKNAREFMGELWPLLLSAQENIAGIPSAFLELKK”, the “soluble on expression in E. coli” value is reported as “not soluble”. With “MYEIPWSKPVNINMLDGRCRTVVGPLDAMHCLQSEWPVRDGAYYGCAIRACNAALKRRKRPEDARAAFIAALREAFLTVVPMQEEGHGPRPLE” the “soluble on expression in E. coli” value was “not soluble”. In the case of “MSRIVAIDYGRKRTGIAVSDTLQLIANGLTTVPTHELLNFIGGYVAKEPVERIIIGLPKQMNNEASENMKNIEPFVRSLKKRFPELPVEYVDERFTSVLAHRTMLEAGLKKKDRQNKALVDEISATIILQTYLESKRF”, the “soluble on expression in E. coli” value is reported as “not soluble”. With “MTRIISIVSGKGGTGKTTVTANLSVALGEMGRKVLAVDGDLTMANLSLVLGVDDVNITLHDVLAGDAKLEDAIYMTQFENVYILPGAVDWEHVIKADPRKLPEVIKSLKGKYDFILIDCPAGLQLRAMSAMLSGEEAILVTNPEISCLTDTMKVGMVLKKAGLAILGFILNRYGRSERDIPPEAAQDVMDVPLLAVIPEDPVIREGTLEGIPAVKYKPESKGAQAFIKLAEEVDKLAGIKAKI” the “soluble on expression in E. coli” value was “soluble”. In the case of “AIAAQDENKEQPKKDWKTIISPQYWKNSVSLLFTDAEQGNFVLPSLQSVSFSKASETIGKQVKESAKELGALFSAEECPSQQGSKEAPWEVLTAREKPFAKEIEERILKITSDCYRSRKEREEIFLSLSSLKDSHFRWSNNSSEKMKQAMAALEKDPILPDLRAGLVPKRMSEENFWRQYFYLVEKVKKSVVTNSQFGLFDEWESWSDTTSHPTLEHSQENSDLDNEVDQVLNDVLE”, the “soluble on expression in E. coli” value is reported as “soluble”. For “MGSSHHHHHHSSASMTGGQQMGRTLYDDDDKDRWGSELETGRQKARGAATRARQKQRASLETMDKAVQRFRLQNPDLDSEALLTLPLLQLVQKLQSGELSPEAVFFTYLGKAWEVNKGTNCVTSYLTDCETQLSQAPRQGLLYGVPVSLKECFSYKGHDSTLGLSLNEGMPSESDCVVVQVLKLQGAVPFVHTNVPQSMFSYDCSNPLFGQTMNPWKSSKSPGGSSGGEGALIGSGGSPLGLGTDIGGSIRFPSAFCGICGLKPTGNRLSKSGLKGCVYGQTAVQLSLGPMARDVESLALCLKALLCEHLFTLDPTVPPLPFREEVYRSSRPLRVGYYETDNYTMPSPAMRRALIETKQRLEAAGHTLIPFLPNNIPYALEVLSTGGLFSDGGRSFLQNFKGDFVDPCLGDLILILRLPSWFKRLLSLLLKPLFPRLAAFLNNMRPRSAEKLWKLQHEIEMYRQSVIAQWKAMNLDVLLTPMLGPALDLNTPGRATGAVSYTMLYNCLDFPAGVVPVTTVTAEDDAQMELYKGYFGDIWDIILKKAMKNSVGLPVAVQCVALPWQEELCLRFMREVEQLMTPQKQPS”, the “soluble on expression in E. coli” value was “soluble”. In the case of “MAHHHHHHSLSLQVTTKTGKESQKKTQTTAKSTITVDIKGAVKHEGVYTLPIDSRINDVIEKAGGFSEKADRKSVNLAQKLQDEAVIYVAAIGENISVIRDSQEGKTSQADKANTKETSVKGKVNLNTATLADLQTISGIGEKKAQDILDYREANGGFKSVDDLKNISGIGDKTFEKLKDLVSVDEG”, the “soluble on expression in E. coli” value is reported as “not soluble”.
